In patent US20230138930A1 (FUDAN UNIVERSITY, published 2023) one finds MFI data, which are given here for 2 molecules.

Experiment [1] addresses T1, human TF on cells (MDA-MB-231, BxPC-3 and other tumor cells with high TF expression) (human, UniProt P13726 33-295).
T1 construct: whole, on cells; Endogenous expression on tumor cell lines; also called cell surface TF
The experiment in a line: flow cytometry on MDA-MB-231 cells, antibody at 1 µg/mL. Background: In flow cytometry, cells or beads pass a laser one at a time.

Experiment [2] concerns the target T1, human TF on cells (MDA-MB-231, BxPC-3 …). The experiment in a line: flow cytometry on MDA-MB-231 cells, antibody at 10 µg/mL.

B1: TF-mAb-H47 (antibody, V domains shown)
VH: QVQLVQSGAEVKKPGASVKVSCKASGYSFISYWMNWVRQAPGQGLEWIGMIYPADSETRLNQKFKDRATLTVDKSTSTAYMELSSLRSEDTAVYYCAREDYGSSDYWGQGTTVTVSS
VL: EIVLTQSPDFQSVTPKEKVTITCSASSSVSYMNWYQQKPDQSPKIWIYGISNLASGVPSRFSGSGSGTDFTLTINSLEAEDAATYYCQQKSSFPWTFGGGTKVEIK
B1: the MFI was 3000 MFI in experiment [1] and 3150 MFI in experiment [2].

B2: TF-mAb-H48 (antibody, V domains shown)
VH: QVQLVQSGSELKKPGASVKVSCKASGYSFISYWMNWVRQAPGQGLEWIGMIYPADSETRLNQKFKDRAVLSVDKSVSTAYLQICSLKAEDTAVYYCAREDYGSSDYWGQGTTVTVSS
VL: B1 VL
With B2, the MFI was found to be 2610 MFI in experiment [1] and 2900 MFI in experiment [2].
